Reference: patent US20240389562

How the values were obtained:
Assay in all cases: cell_activity
[1] = tested on: XTN TALEN 1 right monomer; conditions: Cel-1 assay, value for the pair
[2] = tested on: XTN TALEN 3 right monomer; conditions: Cel-1 assay, value for the pair
XTN TALEN 1 left monomer = conditions: Cel-1 assay, value for the pair
XTN TALEN 3 left monomer = conditions: Cel-1 assay, value for the pair
XTN TALEN 2 left monomer = conditions: Cel-1 assay, value for the pair; most active
[3] = tested on: XTN TALEN 2 right monomer; conditions: Cel-1 assay, value for the pair; most active

AGTGCAGGGAGCCACA (double strand) [TALEN 1 right half-site]
activity [1]: 5%

GTCATTGAGCAAATGCA (double strand) [TALEN 3 right half-site]
activity [2]: 3%

TATGCGGACCTTTATCTA (double strand) [TALEN 1 left half-site]
activity (XTN TALEN 1 left monomer): 5%

TCTGCCAACCTCACAT (double strand) [TALEN 3 left half-site]
activity (XTN TALEN 3 left monomer): 3%

TGCAGTATGCGGACCTT (double strand) [TALEN 2 left half-site]
activity (XTN TALEN 2 left monomer): 9%

TTCCTAAGTGCAGGGA (double strand) [TALEN 2 right half-site]
activity [3]: 9%
